Consider 14 sequences from a protein production outcome set (Wang et al. 2014).
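Further: failed if final PepcDB status was selected cloned or expressed and not failed if soluble or beyond.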

The data set is described as follows: label from the status in PepcDB records.
As for “MNSIEKELDCGRSVTDQQKIEEVTRQITEHGNELRRRYPVLNYQNALGASAMAVSVTVMVVTGVLYVKGIMPAWLCILVNALSTSIIHELEHDLIHRLYFRKQPLAHNFMMLLCWLTRPGMPSPWLRRGLHFHHHKESGTATDVEAWITTSGNPWGILRLLKLMDGFLFGFVNAVCAPGWRQKMKLLARIIRLNTPFGLLYWGSWYVFLGYHLSTWLGGLAGVPPPSSPLMLQVMNMIDCVVVIVVAPNMIRQFCLYFISSNMHYYGDVAPRNALQQTQVMNHWLLWPFQLFCFNFGSTHSIHHFVVKDPFYLRQMTAPYAHEVMAKAGVRFNDFGTYKRANRFKLDTVQFQSRG”, the protein production result is listed as “failed”.

“MNSLPSPHPPLSPAVPVASRAALRLAELGVFVLTALVVNMPSGLLPFGVCLLGGTLLGWRSLRAGLATQGWSLRVLTGLTAVVIAMSVLSIVLFEPSVRDVENRSRFLVLPWAALWAYALQPRQVWLWRGALAGVFAAMLVAILQVMNGAERAEGWTNAIVFADIALMLLVVAIFCRPNGQVRWLLGAAVAAVAVIVLSGSRGVWLSLLVTLGVLVWGAPWQSARMRLLAFVGGAVVCVGLVLSVPGLTEQLRIGELQSDFQRYEVGDADSSAGARIERLHVAWDTLQAHPLTGVGVGRFDDAMRELPLCAGDTWLLRCHLGHAHNDLAEWGATQGIPGLLLLIAVYGVPLWMFVRLHRRSGQRQFRGPAAAGVMIVISYALCGLTQSMFAHQVSASFYAAMVGILAGLAARQAQQHATAASPLAQSAR”: the protein production entry is reported as “failed”.

Take “MNSLSSLAAVLLMAGRSTRMGQPKALLPLGGMPLCRHAAQTLVEAGYGEVWAVLPPGETGDAVRAALQGLPLRWVTNPQPAQGLLSSFQAAGEALWAESAAPAVVFTLADMPLVRRDTHQALGTVFGAEQPAAIITRYGEVAAPPTLLRRDLLPRLHEFPPSDHGPRTLLRELGRELKKIDRPAAELLDIDTPEAWAQAQQLFAEVTPGAQDGP”: the protein production entry was “failed”.

With “MNSNANNTPIAIGISQVFPCSYLDGQQEQLLVIQEETLDPILFERLLAIGFRRSGSAIYKPRCPRCSACQPIRVPIQEFVPSKRQKRTLAHNRDLTWRITTEHTETQYALYEKYIRERHFDGPMYPPSKAQYEQFLFCHWLPPTFIEVYDDNRLVAVAVTDTLPNSFSAIYSYFDPDEERRSLGVLLILLQCRLAKLQGKAFLYLGYQIDANRKMSYKRLYRPYQILTHQGWEYSQVCLEHHHHHH”, the protein production result is listed as “failed”.

As to “MNSNVNDRKPRLVFFQWDHQPNANAAGYLLLHMQQQVKCLSTHFDVVVINRDCDYAEICDRYEPDLTLFESGYRSHGSRRIKITNTNTHIAVPKLGLHNADAWCDRRAGFLSDMEQWGIEAYFAIATMTPEYMPAVKENLFVWPNFIDPDVYHDYGQQKVIPAMLTGQAYGLYPWRQTVFPMIRDRYPCLVSPQHAYESKLASQLLSGEAYARALNASLVVPTCGTMGGEVVRKHFEIPGAKACLVTERTPAVEAAGFVDMENCVFVDGHNVVERLDYLFAHPDEIRHITTAGYSLIHSRHTLSHRPQIYQWFMLSKGLQFGEKIIQSGPFGDLTKVQRISRQESVHIVGEASDRALLKQGDLLLEQGRVEEAKQCYARCLDYVSYLPEAKFRLAICALQQGDADRAYGLMVGLVKVTMTEYEALNPDPVEWAYFLLALICRGQFERARRLQDFYPSLSHDEFRRARLVIALLGGSGDAAVSGRYGRDRKSIHQIPDRSDSEWLAWFSDILERCQQPDLANVLRHAPVGRSGVGEKVTFLHFKRDAGWRLRLYSGVDGLMVGLHLNGLRPNVPPLPEFRYFSHLARRLVPHSQRGPLRRIRTALSRLPVGTGN”, the protein production entry is on record as “failed”.

As to “MNSPFAAETLLFERSRPRPEALRVIYGFPNTYSVGITSLGYQLVWAQLASRADVAVSRLFTDVQEPLPRDPELVGFSFSWELDYGNLLVLLEQLGIPIWQRDRHDCHPLVFGGGPVLTANPEPFADFFDVILLGDAEPLLDPFLTTMAQVRTAARSQRLEALAHVPGIYVPSLYHVSYSHPTGPIQRIEPIKASVPPTVTKQVHRGHTLAASTVVTPLAAWENIYMVEVVRSCPELCRFCLASYLTLPFRTPSLETLIPAIERGLAVTDRLGLLGASITQHPEFPALIEHLGQPQFDHVRVSLASVRTNTVTESLAQLLSQRGSQSLTIAIETGSERLRQVINKKLETEEILAAASHAQAGGLKGLKFYGMVGLPTETDADVAATVDLFCQLKKTAPRLRLTLGCSTFVPKAHTPFQWWGVQPVAEKRLKFLKKELAKLGIEFRPESYNDSLIQALISRGDRRLAPLLEQVRHYGTSLGSYRRAFKERQGQLPDFEAYVNANWPEETVLPWQHLQSGLPTKTLENHLKRAIALEHHHHHH”, the protein production entry was “failed”.

For “MNSPKNSLYEEKSGHYYNAVNPNLLKHIKKEWKEVLDIGCSSGALGAAIKENGTRVSGIEAFPEAAEQAKEKLDHVVLGDIETMDMPYEEEQFDCVIFGDVLEHLFDPWAVIEKVKPYIKQNGVILASIPNVSHISVLAPLLAGNWTYTEYGLLDKTHIRFFTFNEMLRMFLKAGYSISKVDRVYVDHKMYEPLIEELYGICKKYRLGSGFMAETVVFQYIIEAEKSQL”, the protein production result is listed as “not failed”.

On to “MNSPTSRPLRRDPLHNALVTTNVLVVLDQLEVAAEPTRRRLVQLLTSGEQTVNNLAAHFPASRSAISQHLRVLTEAGLVTPRKDGRFRYYRLDPQGLAQLRALFDSFWIDELDRLVADATEEAASKGDS”, for which the protein production result is “not failed”.

In the case of “MNSTAIVLLNWRSAKDTVKCVESLIAAEIRQCDIIIVDNDSQDESINVIKEHFTDVRVIESGKNGGFAYGCNVGIRAALSSGYNYVWLLNNDTIVDKTTLPNMIEEIKRNKKAIVGSIIRDIEFPWSVQAVGGGTINFLTGTGRHIKTFDDVDKLDYLLGASILVSREALESIGLLNEDFFMYWEDTEFCIRARRKGYFLKVAKQSNVYHKEGGSVNKESYAQTRMIFRSMRKFFLKESPFPLLPIAIRQLGKTFVSLLRREFRRIPYIWL”, the protein production entry was “failed”.

For “MNSTRGVTLIQLSSALAYSHALMNQVVNPGDHVIDATVGNGHDTVYLAKLVGTTGHVDGFDIQSAAIEATTTALDKAALTHQVTLWQTGHEHIADKIAADQPIKCAVFNLGYLPGGDKQIITKPTTTLTAIKAIQERLVTNGLIILLVYAGHPGGATEAQAVLDYVTNLDQHQFQVLQYQFINQVHVPPYLLAIQKR”, the protein production result is reported as “failed”.

As to “MNSVGFYGKLAGRGDFVSRGLPNTFVEPWDAWLASGMRASQDELGAAWLDAYLTSPLWRFAIAPGLLGGEAVTGVVMPSIDRVGRYFPLTVACLLPANADLGGLVGGDDGWFEQVESLLLSTLEPEAEVEAFEQAVAQLPAPPCGPRIEQSLISGNLLRSEAVTPAQRLAALAQHACDGASHWWGRGSARISAGLMRYQGLPPAPAFGRFLTGEGEVIPLFPGIPG”, the protein production result is given as “not failed”.

Consider “MNSVVDISWAKLAAFSLILLVPLAINARYRLGIAKDASVSVVRMTLQLVLIGVYLEYLFQLNSLIINLLWLAIMLVVGASSIAGKARLPKKPLMLPLLTGLVCGLFPLLIAITAGLVRPTPLYNAQYMIPLAGMLLGNSLSSNIIALQNLFSAFEERKSEYEAAISLGAAPKYASFPFVQEALRKSLAPTLASMTTMGLVTLPGMMTGQVLGGASPLVAIKYQLVIMLAIFVMMSVSVAITLEMTLSFVQTKEGRVTVKVRPVDGMKRGQ”, for which the protein production result was “failed”.

In the case of “MNTESVVEFLGNVPLLQKLPSSSLKKIAQVVVPKRYGKGDYVVREDQTWDGCYFILQGEAQVSGPDEEDNRSEFLLKQYDYFGVGLSGNVHSADIVAMSQLTCLVLPRDHCHLLETNSIWQSDTSLDKCSLVERILQLDPLELNIFRGITLPDAPIFGKVFGGQFVGQALAAASKTVDFLKVVHSLHSYFLLVGDIDIPIIYQVHRIRDGNNFATRRVDAVQKGNIIFILLASFQKEQQGFEHQESTMPSVPDPDTLLSLEELRESRITDPHLPRSYRNKVATRNFVPWPIEIRFCEPSNSTNQTKSPPRLNYWFRAKGRLSDDQALHRCVVAFASDLIFCGVGLNPHRRKGVKSAALSLDHAMWFHRPLRADEWLLYVIVSPTAHETRGFVTGQMFNRKGELVVSLTQEALLREARPPKPSGTSKL”, the protein production result is “failed”.

For the sequence “MNTGTAVITGASSGLGLQCARALLRRDASWHVVLAVRDPARGRAAMEELGEPNRCSVLEVDLASVRSVRSFVETVRTTPLPPIRALVCNAGLQVVSGIAFTDDGVEMTFGVNHLGHFALVTGILDWLARPARIVVVSSGTHDPSKHTGMPDPRYTCAADLAHPPTDQNTPAEGRRRYTTSKLCNVLFTYELDRRLDHGEQGVMVNAFDPGLMPGSGLARDYPPILRLAYRLLSPMLRVLPFVHSTRVSGEHLAALAVDPRFAGVTGQYFAGAKAIRSSAESYDRAKALDLWETSERLLAQVT”, the protein production result is “failed”.
